Experimental data taken from patent US10428140B2, “Anti-EphA4 antibody” (EISAI R&D MANAGEMENT CO., LTD., priority 2015, dated 2019).
Changes are numbered by the printed parent chain.

B1: 159 (antibody, V domains shown)
VH: QVQLVQSGSELKKPGASVKVSCKASGYTFTDYSMHWVRQAPGQGLKWMGWINTETGEPTYADDFKGRFVFSLDTSVSTAYLQISSLKAEDTAVYYCARIPLYYYGSRYWYFDVWGQGTTVTVSS
VL: DIQMTQSPSSLSASVGDRVTITCRASENIYRNLAWYQQKPGKAPQLLLYAATNLADGVPSRFSGSGSGTDYTLTISSLQPEDFATYYCQHFWGTPWTFGQGTKVEIK
modifications: synthetic humanized antibody heavy chain variable region sequence; synthetic humanized antibody light chain variable region sequence
B2: 160 (antibody, V domains shown)
VH: B1 VH with V2I
VL: B1 VL
modifications: synthetic humanized antibody heavy chain variable region sequence; synthetic humanized antibody light chain variable region sequence
B3: 67 (antibody, V domains shown)
VH: B1 VH with V2I, D62Q, D63G, K65T
VL: B1 VL with Q45K, L48V
modifications: synthetic humanized antibody heavy chain variable region sequence; synthetic humanized antibody light chain variable region sequence
B4: 134 (antibody, V domains shown)
VH: B1 VH with D62Q, D63G, K65T
VL: EIVMTQSPATLSVSPGERATLSCRASENIYRNLAWYQQKPGQSPRLLIYAATNLADGIPARFSGSGSGTEYTLTISSLQSEDFAVYYCQHFWGTPWTFGQGTKVEIK
modifications: synthetic humanized antibody heavy chain variable region sequence; synthetic humanized antibody light chain variable region sequence
B5: 132 (antibody, V domains shown)
VH: B1 VH with V2I, D62Q, D63G, K65T
VL: B4 VL
modifications: synthetic humanized antibody heavy chain variable region sequence; synthetic humanized antibody light chain variable region sequence
B6: 75 (antibody)
VH: B1 VH with K46E, D62Q, D63G, K65T
VL: B1 VL with Q45K, L48V
chain: ASTKGPSVFPLAPSSKSTSGGTAALGCLVKDYFPEPVTVSWNSGALTSGVHTFPAVLQSSGLYSLSSVVTVPSSSLGTQTYICNVNHKPSNTKVDKRVEPKSCDKTHTCPPCPAPPAAAPSVFLFPPKPKDTLMISRTPEVTCVVVDVSHEDPEVQFNWYVDGVEVHNAKTKPREEQFNSTFRVVSVLTVVHQDWLNGKEYKCKVSNKGLPAPIEKTISKTKGQPREPQVYTLPPSREEMTKNQVSLTCLVKGFYPSDIAVEWESNGQPENNYKTTPPMLDSDGSFFLYSKLTVDKSRWQQGNVFSCSVMHEALHNHYTQKSLSLSPG
modifications: synthetic humanized antibody heavy chain variable region sequence; synthetic humanized antibody light chain variable region sequence; synthetic antibody constant region sequence
B7: 76 (antibody, V domains shown)
VH: B1 VH with D62Q, D63G, K65T
VL: B1 VL with Q45K, L48V
modifications: synthetic humanized antibody heavy chain variable region sequence; synthetic humanized antibody light chain variable region sequence
B8: 133 (antibody, V domains shown)
VH: B1 VH with K46E, D62Q, D63G, K65T
VL: B4 VL
modifications: synthetic humanized antibody heavy chain variable region sequence; synthetic humanized antibody light chain variable region sequence
B9: 135 (antibody, V domains shown)
VH: B1 VH with K46E
VL: B4 VL
modifications: synthetic humanized antibody heavy chain variable region sequence; synthetic humanized antibody light chain variable region sequence

Legend:
Assay in all cases: Selectivity ELISA of humanized antibodies for human Eph receptor
Type in all cases: binding
[1] = biological target: T1, human EphA4 (Homo sapiens, UniProt P54764); details: coated protein 1 nM; reference set to 100%
T1 construct: made in house; not restated for the human SEAP-His protein
T1 sequence (P54764 20-547): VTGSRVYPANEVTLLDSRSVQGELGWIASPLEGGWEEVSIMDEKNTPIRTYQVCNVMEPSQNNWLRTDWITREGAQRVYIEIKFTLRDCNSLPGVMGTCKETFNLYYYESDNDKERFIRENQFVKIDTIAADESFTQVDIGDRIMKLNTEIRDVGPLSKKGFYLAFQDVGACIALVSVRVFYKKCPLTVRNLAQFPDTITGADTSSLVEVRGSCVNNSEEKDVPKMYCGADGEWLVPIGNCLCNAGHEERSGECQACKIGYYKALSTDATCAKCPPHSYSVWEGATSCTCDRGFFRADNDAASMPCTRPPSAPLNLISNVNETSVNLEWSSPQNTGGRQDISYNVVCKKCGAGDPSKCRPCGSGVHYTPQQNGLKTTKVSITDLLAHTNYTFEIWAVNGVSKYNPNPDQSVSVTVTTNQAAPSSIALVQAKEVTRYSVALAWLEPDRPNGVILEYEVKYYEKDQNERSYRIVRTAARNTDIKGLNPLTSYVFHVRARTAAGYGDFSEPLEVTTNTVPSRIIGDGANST
In short: (§1)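 His-tagged SEAP fusions of each human Eph receptor extracellular region, from Expi293F supernatants, were captured at 1 nM on anti-His-coated wells. Humanized antibody was bound 1 h at room temperature, then detected with HRP […] IgG. TMB development was acid-stopped and read at 450 nm.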

[2] = biological target: T2, human EphA7 (Homo sapiens, UniProt Q15375); details: coated protein 1 nM
T2 construct: a protein of the extracellular region of each human Eph receptor fused with the SEAP protein and the His tag; made in house; host or cells: Expi293F cells (culture supernatant)
T2 sequence (Q15375 28-555 limits assumed): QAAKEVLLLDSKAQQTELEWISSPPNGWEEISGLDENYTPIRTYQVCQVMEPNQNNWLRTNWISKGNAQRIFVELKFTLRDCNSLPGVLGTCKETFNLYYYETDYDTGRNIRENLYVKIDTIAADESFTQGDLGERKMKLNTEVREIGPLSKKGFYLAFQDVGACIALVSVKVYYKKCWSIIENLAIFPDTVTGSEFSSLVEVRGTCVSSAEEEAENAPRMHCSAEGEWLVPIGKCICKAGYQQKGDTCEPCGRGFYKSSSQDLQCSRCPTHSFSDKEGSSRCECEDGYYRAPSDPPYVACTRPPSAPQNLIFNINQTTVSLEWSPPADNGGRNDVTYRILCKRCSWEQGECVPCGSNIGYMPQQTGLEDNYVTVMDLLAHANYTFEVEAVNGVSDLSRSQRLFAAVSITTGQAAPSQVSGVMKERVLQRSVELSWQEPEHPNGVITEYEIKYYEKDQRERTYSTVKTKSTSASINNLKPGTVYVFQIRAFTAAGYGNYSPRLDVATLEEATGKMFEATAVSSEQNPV
In short: as §1

[3] = biological target: T3, human EphA10 (Homo sapiens, UniProt Q5JZY3); details: coated protein 1 nM
T3 construct: a protein of the extracellular region of each human Eph receptor fused with the SEAP protein and the His tag; made in house; host or cells: Expi293F cells (culture supernatant)
T3 sequence (Q5JZY3 34-565 limits assumed): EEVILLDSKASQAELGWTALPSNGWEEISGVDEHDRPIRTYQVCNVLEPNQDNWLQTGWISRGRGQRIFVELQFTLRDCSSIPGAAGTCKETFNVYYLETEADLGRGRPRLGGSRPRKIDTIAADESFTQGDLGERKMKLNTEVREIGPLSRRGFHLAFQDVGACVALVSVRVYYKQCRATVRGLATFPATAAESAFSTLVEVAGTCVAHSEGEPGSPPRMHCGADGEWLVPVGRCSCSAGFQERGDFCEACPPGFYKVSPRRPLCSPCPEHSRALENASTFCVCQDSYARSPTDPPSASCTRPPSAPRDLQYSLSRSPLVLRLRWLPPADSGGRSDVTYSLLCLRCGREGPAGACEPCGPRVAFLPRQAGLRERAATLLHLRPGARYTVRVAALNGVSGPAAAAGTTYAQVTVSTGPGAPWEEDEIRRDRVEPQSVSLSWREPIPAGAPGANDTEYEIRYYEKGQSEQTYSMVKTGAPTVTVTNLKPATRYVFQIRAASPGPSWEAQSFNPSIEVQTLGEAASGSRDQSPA
In short: as §1

[4] = biological target: T4, human EphA8 (Homo sapiens, UniProt P29322); details: coated protein 1 nM
T4 construct: a protein of the extracellular region of each human Eph receptor fused with the SEAP protein and the His tag; made in house; host or cells: Expi293F cells (culture supernatant)
T4 sequence (P29322 28-542 limits assumed): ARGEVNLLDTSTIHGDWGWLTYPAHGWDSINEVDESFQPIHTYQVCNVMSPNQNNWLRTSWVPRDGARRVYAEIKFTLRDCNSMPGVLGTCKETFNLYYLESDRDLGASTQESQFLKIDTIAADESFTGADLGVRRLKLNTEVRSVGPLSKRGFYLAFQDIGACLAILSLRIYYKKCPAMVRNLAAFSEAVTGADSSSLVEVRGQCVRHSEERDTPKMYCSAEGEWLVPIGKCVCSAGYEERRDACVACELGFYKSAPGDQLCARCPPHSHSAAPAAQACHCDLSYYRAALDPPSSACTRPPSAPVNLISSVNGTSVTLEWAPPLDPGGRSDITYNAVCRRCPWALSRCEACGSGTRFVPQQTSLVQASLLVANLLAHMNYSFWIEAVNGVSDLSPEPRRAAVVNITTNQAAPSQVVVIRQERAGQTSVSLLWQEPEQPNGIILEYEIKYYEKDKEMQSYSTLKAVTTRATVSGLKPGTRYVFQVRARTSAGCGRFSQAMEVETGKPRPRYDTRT
In short: as §1

Molecule	hEphA4-SEAP-: absorbance at 450 nm, percentage with respect to hEphA4-SEAP-His as 100% [1] [%]	hEphA7-SEAP-: absorbance at 450 nm, percentage with respect to hEphA4-SEAP-His as 100% [2] [%]	hEphA10-SEAP-: absorbance at 450 nm, percentage with respect to hEphA4-SEAP-His as 100% [3] [%]	hEphA8-SEAP-: absorbance at 450 nm, percentage with respect to hEphA4-SEAP-His as 100% [4] [%]
B1	100	5.5	5.3	5.5
B2	100	6.1	5.0	5.4
B3	100	4.7	4.6	4.7
B4	100	5.1	5.0	5.7
B5	100	4.5	4.7	4.7
B6	100	4.7	4.4	4.8
B7	100	4.8	4.7	5.5
B8	100	4.6	4.7	4.7
B9	100	5.2	5.1	5.0
